Series [1] concerns the target SpLsm2 (of SpLsm2/3);SpLsm3 (of SpLsm2/3) (Schizosaccharomyces …, UniProt O94408;Q9Y7M4 1-96;1-93, |). Description: fluorescence anisotropy; FA: 20 mM Hepes pH 7.5, 100 mM NaCl, 25 C, 0.1 uM RNA; SPR (Biacore 3000): 20 mM Hepes pH 7.5, 100 mM NaCl, 25 C, 1 uM protein. The following applies: protein: recombinant;recombinant; tags: N-terminal His6;none; label: 5' 6-FAM; single strand.

For series [2], the target named is SpLsm5;SpLsm6;SpLsm7 (Schizosaccharomyces …, UniProt O42978;Q9UUI1;O74499 1-80;1-75;1-113, ||). Described as above. The settings on record: protein: recombinant;recombinant;recombinant; tags: N-terminal His6;none;; chain copies: 2;2;2; label: 5' 6-FAM; single strand.
Series [3] deals with T1, ScLsm3 (Saccharomyces cerevisiae, UniProt P57743 1-89).
T1 sequence: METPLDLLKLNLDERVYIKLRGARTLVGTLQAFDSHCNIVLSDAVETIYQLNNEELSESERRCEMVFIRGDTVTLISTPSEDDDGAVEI
Description: SPR; 1 uM protein; FA: 20 mM Hepes pH 7.5, 100 mM NaCl, 25 C, 0.1 uM RNA; SPR (Biacore 3000): 20 mM Hepes pH 7.5, 100 mM NaCl, 25 C, 1 uM protein. The settings on record: protein: recombinant; tags: His6 removed by PreScission; chain copies: 8; label: 5' biotin; single strand. On the technique in general: SPR reads the build-up and loss of mass on a sensor chip optically.

Chain of SpLsm2 (of SpLsm2/3);SpLsm3 (of SpLsm2/3) (O94408 whole entry, chain 1 of 2): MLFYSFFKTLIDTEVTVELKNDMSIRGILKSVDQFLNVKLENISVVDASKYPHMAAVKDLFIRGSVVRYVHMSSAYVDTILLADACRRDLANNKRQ
Chain of SpLsm2 (of SpLsm2/3);SpLsm3 (of SpLsm2/3) (Q9Y7M4 whole entry, chain 2 of 2): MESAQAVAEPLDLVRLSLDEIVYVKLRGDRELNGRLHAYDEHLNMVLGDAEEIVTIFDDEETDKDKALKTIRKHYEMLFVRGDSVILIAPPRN
Chain of SpLsm5;SpLsm6;SpLsm7 (O42978 whole entry, chain 1 of 3): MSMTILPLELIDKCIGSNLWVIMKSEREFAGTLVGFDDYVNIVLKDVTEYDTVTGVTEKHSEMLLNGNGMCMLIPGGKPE
Chain of SpLsm5;SpLsm6;SpLsm7 (Q9UUI1 whole entry, chain 2 of 3): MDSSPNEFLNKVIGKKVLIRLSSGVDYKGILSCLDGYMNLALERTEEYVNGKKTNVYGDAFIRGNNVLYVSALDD
Chain of SpLsm5;SpLsm6;SpLsm7 (O74499 whole entry, chain 3 of 3): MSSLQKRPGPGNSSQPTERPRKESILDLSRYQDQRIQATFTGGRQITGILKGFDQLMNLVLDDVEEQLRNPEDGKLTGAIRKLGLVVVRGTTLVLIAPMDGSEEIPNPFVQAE

The Kd is the concentration at which binding is half-saturated. With UUUUUUUUUUUUUUU (ssRNA) [U15 (FAM)], the Kd turned out to be 4 ± 0.5 µM in series [1] and 52.5 ± 10 µM in series [2].
For the molecule UUUUUUUUUUUUUUU (ssRNA) [U15 (biotin)], the binding result in series [3] is “no binding”.

Values taken from article PMC3355152, “Crystal Structures of Lsm3, Lsm4 and Lsm5/6/7 from Schizosaccharomyces pombe”.
